Data reported in patent US20240261333A1, “NOVEL TARGETS FOR ENHANCING ANTI-TUMOR IMMUNITY” (THE BROAD INSTITUTE, INC., priority 2021, published 2024).

B1: LOXL4 (protein)
chain: QSLGTTKLRLVGPESKPEEGRLEVLHQGQWGTVCDDNFAIQEATVACRQLGFEAALTWAHSAKYGQGEGPIWLDNVRCVGTESSLDQCGSNGWGVSDCSHSEDVGVICHPRRHRGYLSETVSNALGPQGRRLEEVRLKPILASAKQHSPVTEGAVEVKYEGHWRQVCDQGWTMNNSRVVCGMLGFPSEVPVDSHYYRKVWDLKMRDPKSRLKSLTNKNSFWIHQVTCLGTEPHMANCQVQVAPARGKLRPACPGGMHAVVSCVAGPHFRPPKTKPQRKGSWAEEPRVRLRSGAQVGEGRVEVLMNRQWGTVCDHRWNLISASVVCRQLGFGSAREALFGARLGQGLGPIHLSEVRCRGYERTLSDCPALEGSQNGCQHENDAAVRCNVPNMGFQNQVRLAGGRIPEEGLLEVQVEVNGVPRWGSVCSENWGLTEAMVACRQLGLGFAIHAYKETWFWSGTPRAQEVVMSGVRCSGTELALQQCQRHGPVHCSHGGGRFLAGVSCMDSAPDLVMNAQLVQETAYLEDRPLSQLYCAHEENCLSKSADHMDWPYGYRRLLRFSTQIYNLGRTDFRPKTGRDSWVWHQCHRHYHSIEVFTHYDLLTLNGSKVAEGHKASFCLEDTNCPTGLQRRYACANFGEQGVTVGCWDTYRHDIDCQWVDITDVGPGNYIFQVIVNPHYEVAESDFSNNMLQCRCKYDGHRVWLHNCHTGNSYPANAELSLEQEQRLRNNLI
B2: PGK1 (protein)
chain: SLSNKLTLDKLDVKGKRVVMRVDFNVPMKNNQITNNQRIKAAVPSIKFCLDNGAKSVVLMSHLGRPDGVPMPDKYSLEPVAVELKSLLGKDVLFLKDCVGPEVEKACANPAAGSVILLENLRFHVEEEGKGKDASGNKVKAEPAKIEAFRASLSKLGDVYVNDAFGTAHRAHSSMVGVNLPQKAGGFLMKKELNYFAKALESPERPFLAILGGAKVADKIQLINNMLDKVNEMIIGGGMAFTFLKVLNNMEIGTSLFDEEGAKIVKDLMSKAEKNGVKITLPVDFVTADKFDENAKTGQATVASGIPAGWMGLDCGPESSKKYAEAVTRAKQIVWNGPVGVFEWEAFARGTKALMDEVVKATSRGCITIIGGGDTATCCAKWNTEDKVSHVSTGGGASLELLEGKVLPGVDALSNI
B3: OS9 (protein)
chain: GGVGSLNLEELSEMRYGIEILPLPVMGGQSQSSDVVIVSSKYKQRYECRLPAGAIHFQREREEETPAYQGPGIPELLSPMRDAPCLLKTKDWWTYEFCYGRHIQQYHMEDSEIKGEVLYLGYYQSAFDWDDETAKASKQHRLKRYHSQTYGNGSKCDLNGRPREAEVRFLCDEGAGISGDYIDRVDEPLSCSYVLTIRTPRLCPHPLLRPPPSAAPQAILCHPSLQPEEYMAYVQRQADSKQYGDKIIEELQDLGPQVWSETKSGVAPQKMAGASPTKDDSKDSDFWKMLNEPEDQAPGGEEVPAEEQDPSPEAADSASGAPNDFQNNVQVKVIRSPADLIRFIEELKGGTKKGKPNIGQEQPVDDAAEVPQREPEKERGDPERQREMEEEEDEDEDEDEDEDERQLLGEFEKELEGILLPSDRDRLRSETEKELDPDGLKKESERDRAMLALTSTLNKLIKRLEEKQSPELVKKHKKKRVVPKKPPPSPQPTEEDPEHRVRVRVTKLRLGGPNQDLTVLEMKRENPQLKQIEGLVKELLEREGLTAAGKIEIKIVRPWAEGTEEGARWLTDEDTRNLKEIFFNILVPGAEEAQKERQRQKELESNYRRVWGSPGGEGTGDLDEFDF
B4: GNAS (protein)
chain: MGVRNCLYGNNMSGQRDIPPEIGEQPEQPPLEAPGAAAPGAGPSPAEEMETEPPHNEPIPVENDGEACGPPEVSRPNFQVLNPAFREAGAHGSYSPPPEEAMPFEAEQPSLGGFWPTLEQPGFPSGVHAGLEAFGPALMEPGAFSGARPGLGGYSPPPEEAMPFEFDQPAQRGCSQLLLQVPDLAPGGPGAAGVPGAPPEEPQALRPAKAGSRGGYSPPPEETMPFELDGEGFGDDSPPPGLSRVIAQVDGSSQFAAVAASSAVRLTPAANAPPLWVPGAIGSPSQEAVRPPSNFTGSSPWMEISGPPFEIGSAPAGVDDTPVNMDSPPIALDGPPIKVSGAPDKRERAERPPVEEEAAEMEGAADAAEGGKVPSPGYGSPAAGAASADTAARAAPAAPADPDSGATPEDPDSGTAPADPDSGAFAADPDSGAAPAAPADPDSGAAPDAPADPDSGAAPDAPADPDAGAAPEAPAAPAAAETRAAHVAPAAPDAGAPTAPAASATRAAQVRRAASAAPASGARRKIHLRPPSPEIQAADPPTPRPTRASAWRGKSESSRGRRVYYDEGVASSDDDSSGDESDDGTSGCLRWFQHRRNRRRRKPQRNLLRNFLVQAFGGCFGRSESPQPKASRSLKVKKVPLAEKRRQMRKEALEKRAQKRAEKKRSKLIDKQLQDEKMGYMCTHRLLLLGAGESGKSTIVKQMRILHVNGFNGEGGEEDPQAARSNSDGEKATKVQDIKNNLKEAIETIVAAMSNLVPPVELANPENQFRVDYILSVMNVPDFDFPPEFYEHAKALWEDEGVRACYERSNEYQLIDCAQYFLDKIDVIKQADYVPSDQDLLRCRVLTSGIFETKFQVDKVNFHMFDVGGQRDERRKWIQCFNDVTAIIFVVASSSYNMVIREDNQTNRLQEALNLFKSIWNNRWLRTISVILFLNKQDLLAEKVLAGKSKIEDYFPEFARYTTPEDATPEPGEDPRVTRAKYFIRDEFLRISTASGDGRHYCYPHFTCAVDTENIRRVFNDCRDIIQRMHLRQYELL
B5: DPM1 (protein, UniProt O60762 2-260, looked up)
Dolichol-phosphate …: ASLEVSRSPRRSRRELEVRSPRQNKYSVLLPTYNERENLPLIVWLLVKSFSESGINYEIIIIDDGSPDGTRDVAEQLEKIYGSDRILLRPREKKLGLGTAYIHGMKHATGNYIIIMDADLSHHPKFIPEFIRKQKEGNFDIVSGTRYKGNGGVYGWDLKRKIISRGANFLTQILLRPGASDLTGSFRLYRKEVLEKLIEKCVSKGYVFQMEMIVRARQLNYTIGEVPISFVDRVYGESKLGGNEIVSFLKGLLTLFATT
B6: SMN1 (protein)
chain: AMSSGGSGGGVPEQEDSVLFRRGTGQSDDSDIWDDTALIKAYDKAVASFKHALKNGDICETSGKPKTTPKRKPAKKNKSQKKNTAASLQQWKVGDKCSAIWSEDGCIYPATIASIDFKRETCVVVYTGYGNREEQNLSDLLSPICEVANNIEQNAQENENESQVSTDESENSRSPGNKSDNIKPKSAPWNSFLPPPPPMPGPRLGPGKPGLKFNGPPPPPPPPPPHLLSCWLPPFPSGPPIIPPPPPICPDSLDDADALGSMLISWYMSGYHTGYYMEMLA
B7: TRIM28 (protein)
chain: AASAAAASAAAASAASGSPGPGEGSAGGEKRSTAPSAAASASASAAASSPAGGGAEALELLEHCGVCRERLRPEREPRLLPCLHSACSACLGPAAPAAANSSGDGGAAGDGTVVDCPVCKQQCFSKDIVENYFMRDSGSKAATDAQDANQCCTSCEDNAPATSYCVECSEPLCETCVEAHQRVKYTKDHTVRSTGPAKSRDGERTVYCNVHKHEPLVLFCESCDTLTCRDCQLNAHKDHQYQFLEDAVRNQRKLLASLVKRLGDKHATLQKSTKEVRSSIRQVSDVQKRVQVDVKMAILQIMKELNKRGRVLVNDAQKVTEGQQERLERQHWTMTKIQKHQEHILRFASWALESDNNTALLLSKKLIYFQLHRALKMIVDPVEPHGEMKFQWDLNAWTKSAEAFGKIVAERPGTNSTGPAPMAPPRAPGPLSKQGSGSSQPMEVQEGYGFGSGDDPYSSAEPHVSGVKRSRSGEGEVSGLMRKVPRVSLERLDLDLTADSQPPVFKVFPGSTTEDYNLIVIERGAAAAATGQPGTAPAGTPGAPPLAGMAIVKEEETEAAIGAPPTATEGPETKPVLMALAEGPGAEGPRLASPSGSTSSGLEVVAPEGTSAPGGGPGTLDDSATICRVCQKPGDLVMCNQCEFCFHLDCHLPALQDVPGEEWSCSLCHVLPDLKEEDGSLSLDGADSTGVVAKLSPANQRKCERVLLALFCHEPCRPLHQLATDSTFSLDQPGGTLDLTLIRARLQEKLSPPYSSPQEFAQDVGRMFKQFNKLTEDKADVQSIIGLQRFFETRMNEAFGDTKFSAVLVEPPPMSLPGAGLSSQELSGGPGDGP

Target: T1, B3GNT2 (Homo sapiens, UniProt Q9NY97)
T1 construct: The respective ORFs of candidate genes [CD274 (NM_014143), MCL1 (NM_021960), JUNB (NM_002229), and B3GNT2 (NM_006577)] were synthesized; expressed in transfected cells; host or cells: A375 melanoma cells (lentiviral ORF overexpression)
T1 sequence (Q9NY97 1-397): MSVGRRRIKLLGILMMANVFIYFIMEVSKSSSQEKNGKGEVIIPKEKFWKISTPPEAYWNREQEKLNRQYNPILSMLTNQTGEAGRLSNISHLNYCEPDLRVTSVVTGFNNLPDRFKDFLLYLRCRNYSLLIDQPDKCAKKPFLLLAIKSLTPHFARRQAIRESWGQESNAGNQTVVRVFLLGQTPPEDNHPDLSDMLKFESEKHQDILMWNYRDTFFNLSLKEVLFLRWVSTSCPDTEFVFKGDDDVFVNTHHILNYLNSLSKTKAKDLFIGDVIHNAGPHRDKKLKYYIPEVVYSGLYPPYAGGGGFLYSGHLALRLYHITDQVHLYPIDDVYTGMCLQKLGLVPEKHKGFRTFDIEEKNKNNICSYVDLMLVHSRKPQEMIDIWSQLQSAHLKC
Assay: Co-IP of FLAG-tagged B3GNT2 followed by mass spectrometry
Format: cell-based
Parameters: C-term IgG / C-term flag: unit not given here
Conditions: mass spectrometry count, unit not given; for C-term flag / N-term FLAG: Co-IP with FLAG antibody; for C-term flag / C-term IgG: C-terminally FLAG-tagged B3GNT2; for N-term FLAG / N-term IgG: N-terminally FLAG-tagged B3GNT2; for C-term IgG / N-term IgG: Co-IP with IgG control antibody
Outline: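 FLAG-tagged B3GNT2 immunoprecipitated from cell lysate (HEPES, 1% Triton X-100, 150 mM NaCl) with anti-FLAG versus […], overnight at 4° C, then captured on Protein A/G magnetic beads for 4 h. Two biological replicates per condition. Peptides fractionated and analyzed by nano-LC on an Orbitrap Elite in data-dependent mode.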

Row | Molecule | C-term flag | N-term FLAG | C-term IgG | N-term IgG
1 | B1 | 8 | 5 | 0 | 0
2 | B2 | 2 | 0 | 0 | 0
3 | B3 | 9 | 3 | 0 | 0
4 | B4 | 2 | 0 | 0 | 0
5 | B5 | 8 | 4 | 0 | 0
6 | B6 | 14 | 10 | 2 | 0
7 | B7 | 8 | 4 | 0 | 0
